Molecular target: recombinant human TGFβ1 (human, UniProt P01137 279-390)
Assay: cell-based or functional assay

Sequence of recombinant human TGFβ1 (P01137 279-390 limits assumed): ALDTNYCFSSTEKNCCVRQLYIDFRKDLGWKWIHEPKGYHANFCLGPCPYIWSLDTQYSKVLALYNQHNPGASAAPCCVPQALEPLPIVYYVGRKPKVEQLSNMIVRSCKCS

Binder	T cell number from day 0 to day 5 after transduction, culture with 20 ng/mL TGFβ1 [fold]
TGB23-2 fusion protein (TGFβ receptor and IL-23 receptor fusion protein) (receptor) chain 1: TIPPHVQKSVNNDMIVTDNNGAVKFPQLCKFCDVRFSTCDNQKSCMSNCSITSICEKPQEVCVAVWRKNDENITLETVCHDPKLPYHDFILEDAASPKCIMKEKKKPGETFFMCSCSSDECNDNIIFSEEYNTSNPDLLLVIFQVTGISLLPPLGVAISVIIIFYCYRVNRQNRSFRTGIKRRILLLIPKWLYEDIPNMKNSNVVKMLQENSELMNNNSSEQVLYVDPMITEIKEIFIPEHKPTDYKKENTGPLETRDYPQNSLFDNTTVVYIPDLNTGYKPQISNFLPEGSHLSNNNEITSLTLKPPVDSLDSGNNPRLQKHPNFAFSVSSVNSLSNTIFLGELSLILNQGECSSPDIQNSVEEETTMLLENDSPSETIPEQTLLPDEFVSCLGIVNEELPSINTYFPQNILESHFNRISLLEK chain 2: LQCFCHLCTKDNFTCVTDGLCFVSVTETTDKVIHNSMCIAEIDLIPRDRPFVCAPSSKTGSVTTTYCCNQDHCNKIELPTTVKSSPGLGPVELAAVIAGPVCFVCISLMLMVYICHNRTVNRAARHLCPPLPTPCASSAIEFPGGKETWQWINPVDFQEEASLQEALVVEMSWDKGERTEPLEKTELPEGAPELALDTELSLEDGDRCKAKM	> 4
TGB23-3 fusion protein (TGFβ receptor and IL-23 receptor fusion protein) (receptor) chain 1: LQCFCHLCTKDNFTCVTDGLCFVSVTETTDKVIHNSMCIAEIDLIPRDRPFVCAPSSKTGSVTTTYCCNQDHCNKIELPTTVKSSPGLGPVELAAVIAGPVCFVCISLMLMVYICHNRTVNRAARHLCPPLPTPCASSAIEFPGGKETWQWINPVDFQEEASLQEALVVEMSWDKGERTEPLEKTELPEGAPELALDTELSLEDGDRCKAKM chain 2: TIPPHVQKSVNNDMIVTDNNGAVKFPQLCKFCDVRFSTCDNQKSCMSNCSITSICEKPQEVCVAVWRKNDENITLETVCHDPKLPYHDFILEDAASPKCIMKEKKKPGETFFMCSCSSDECNDNIIFSEEYNTSNPDLLLVIFQVTGISLLPPLGVAISVIIIFYCYRVNRQNRSFRTGIKRRILLLIPKWLYEDIPNMKNSNVVKMLQENSELMNNNSSEQVLYVDPMITEIKEIFIPEHKPTDYKKENTGPLETRDYPQNSLFDNTTVVYIPDLNTGYKPQISNFLPEGSHLSNNNEITSLTLKPPVDSLDSGNNPRLQKHPNFAFSVSSVNSLSNTIFLGELSLILNQGECSSPDIQNSVEEETTMLLENDSPSETIPEQTLLPDEFVSCLGIVNEELPSINTYFPQNILESHFNRISLLEK	> 4

Continued, values first:

T cell number from day 0 to day 5 after transduction, culture with 20 ng/mL TGFβ1 [fold]	Binder
> 4	TGB23-4 fusion protein (TGFβ receptor and IL-23 receptor fusion protein) (receptor) chain 1: LQCFCHLCTKDNFTCVTDGLCFVSVTETTDKVIHNSMCIAEIDLIPRDRPFVCAPSSKTGSVTTTYCCNQDHCNKIELPTTVKSSPGLGPVELVPQVTSKAFQHDTWNSGLTVASISTGHLTSDNRGDIGLLLGMIVFAVMLSILSLIGIFNRSFRTGIKRRILLLIPKWLYEDIPNMKNSNVVKMLQENSELMNNNSSEQVLYVDPMITEIKEIFIPEHKPTDYKKENTGPLETRDYPQNSLFDNTTVVYIPDLNTGYKPQISNFLPEGSHLSNNNEITSLTLKPPVDSLDSGNNPRLQKHPNFAFSVSSVNSLSNTIFLGELSLILNQGECSSPDIQNSVEEETTMLLENDSPSETIPEQTLLPDEFVSCLGIVNEELPSINTYFPQNILESHFNRISLLEK chain 2: TIPPHVQKSVNNDMIVTDNNGAVKFPQLCKFCDVRFSTCDNQKSCMSNCSITSICEKPQEVCVAVWRKNDENITLETVCHDPKLPYHDFILEDAASPKCIMKEKKKPGETFFMCSCSSDECNDNIIFSEEYNTSNPDLLLVIFQVSDWLIFFASLGSFLSILLVGVLGYLGLNRAARHLCPPLPTPCASSAIEFPGGKETWQWINPVDFQEEASLQEALVVEMSWDKGERTEPLEKTELPEGAPELALDTELSLEDGDRCKAKM
> 4	TGB23-5 fusion protein (TGFβ receptor and IL-23 receptor fusion protein) (receptor) chain 1: TIPPHVQKSVNNDMIVTDNNGAVKFPQLCKFCDVRFSTCDNQKSCMSNCSITSICEKPQEVCVAVWRKNDENITLETVCHDPKLPYHDFILEDAASPKCIMKEKKKPGETFFMCSCSSDECNDNIIFSEEYNTSNPDLLLVIFQVPQVTSKAFQHDTWNSGLTVASISTGHLTSDNRGDIGLLLGMIVFAVMLSILSLIGIFNRSFRTGIKRRILLLIPKWLYEDIPNMKNSNVVKMLQENSELMNNNSSEQVLYVDPMITEIKEIFIPEHKPTDYKKENTGPLETRDYPQNSLFDNTTVVYIPDLNTGYKPQISNFLPEGSHLSNNNEITSLTLKPPVDSLDSGNNPRLQKHPNFAFSVSSVNSLSNTIFLGELSLILNQGECSSPDIQNSVEEETTMLLENDSPSETIPEQTLLPDEFVSCLGIVNEELPSINTYFPQNILESHFNRISLLEK chain 2: LQCFCHLCTKDNFTCVTDGLCFVSVTETTDKVIHNSMCIAEIDLIPRDRPFVCAPSSKTGSVTTTYCCNQDHCNKIELPTTVKSSPGLGPVELVSDWLIFFASLGSFLSILLVGVLGYLGLNRAARHLCPPLPTPCASSAIEFPGGKETWQWINPVDFQEEASLQEALVVEMSWDKGERTEPLEKTELPEGAPELALDTELSLEDGDRCKAKM
> 4	TGB23-6 fusion protein (TGFβ receptor and IL-23 receptor fusion protein) (receptor) chain 1: LQCFCHLCTKDNFTCVTDGLCFVSVTETTDKVIHNSMCIAEIDLIPRDRPFVCAPSSKTGSVTTTYCCNQDHCNKIELPTTVKSSPGLGPVELVSDWLIFFASLGSFLSILLVGVLGYLGLNRAARHLCPPLPTPCASSAIEFPGGKETWQWINPVDFQEEASLQEALVVEMSWDKGERTEPLEKTELPEGAPELALDTELSLEDGDRCKAKM chain 2: TIPPHVQKSVNNDMIVTDNNGAVKFPQLCKFCDVRFSTCDNQKSCMSNCSITSICEKPQEVCVAVWRKNDENITLETVCHDPKLPYHDFILEDAASPKCIMKEKKKPGETFFMCSCSSDECNDNIIFSEEYNTSNPDLLLVIFQVPQVTSKAFQHDTWNSGLTVASISTGHLTSDNRGDIGLLLGMIVFAVMLSILSLIGIFNRSFRTGIKRRILLLIPKWLYEDIPNMKNSNVVKMLQENSELMNNNSSEQVLYVDPMITEIKEIFIPEHKPTDYKKENTGPLETRDYPQNSLFDNTTVVYIPDLNTGYKPQISNFLPEGSHLSNNNEITSLTLKPPVDSLDSGNNPRLQKHPNFAFSVSSVNSLSNTIFLGELSLILNQGECSSPDIQNSVEEETTMLLENDSPSETIPEQTLLPDEFVSCLGIVNEELPSINTYFPQNILESHFNRISLLEK

From patent US20240366761A1 (LEGEND BIOTECH IRELAND, published 2024)
